Measurements as given in US7022496.

Molecular target: catalytic subunit of the cellular DNA-dependent protein kinase (human) (UniProt P78527)
Assay: cell-based or functional assay

Sequence of adenovirus E4 34k protein (product of early region 4 ORF6), expressed from plasmid OE6.5 as a fusion with a c-myc epitope (P03239 whole entry, the tested form may be a part): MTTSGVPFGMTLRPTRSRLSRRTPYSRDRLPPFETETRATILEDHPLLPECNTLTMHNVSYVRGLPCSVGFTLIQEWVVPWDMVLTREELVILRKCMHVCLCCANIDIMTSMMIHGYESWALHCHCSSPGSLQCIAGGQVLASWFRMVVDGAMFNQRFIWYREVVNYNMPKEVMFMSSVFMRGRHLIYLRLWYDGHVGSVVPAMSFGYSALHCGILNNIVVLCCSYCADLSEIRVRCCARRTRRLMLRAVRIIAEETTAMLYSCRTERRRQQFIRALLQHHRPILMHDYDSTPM
Sequence of UniProt P78527 (P78527 whole entry): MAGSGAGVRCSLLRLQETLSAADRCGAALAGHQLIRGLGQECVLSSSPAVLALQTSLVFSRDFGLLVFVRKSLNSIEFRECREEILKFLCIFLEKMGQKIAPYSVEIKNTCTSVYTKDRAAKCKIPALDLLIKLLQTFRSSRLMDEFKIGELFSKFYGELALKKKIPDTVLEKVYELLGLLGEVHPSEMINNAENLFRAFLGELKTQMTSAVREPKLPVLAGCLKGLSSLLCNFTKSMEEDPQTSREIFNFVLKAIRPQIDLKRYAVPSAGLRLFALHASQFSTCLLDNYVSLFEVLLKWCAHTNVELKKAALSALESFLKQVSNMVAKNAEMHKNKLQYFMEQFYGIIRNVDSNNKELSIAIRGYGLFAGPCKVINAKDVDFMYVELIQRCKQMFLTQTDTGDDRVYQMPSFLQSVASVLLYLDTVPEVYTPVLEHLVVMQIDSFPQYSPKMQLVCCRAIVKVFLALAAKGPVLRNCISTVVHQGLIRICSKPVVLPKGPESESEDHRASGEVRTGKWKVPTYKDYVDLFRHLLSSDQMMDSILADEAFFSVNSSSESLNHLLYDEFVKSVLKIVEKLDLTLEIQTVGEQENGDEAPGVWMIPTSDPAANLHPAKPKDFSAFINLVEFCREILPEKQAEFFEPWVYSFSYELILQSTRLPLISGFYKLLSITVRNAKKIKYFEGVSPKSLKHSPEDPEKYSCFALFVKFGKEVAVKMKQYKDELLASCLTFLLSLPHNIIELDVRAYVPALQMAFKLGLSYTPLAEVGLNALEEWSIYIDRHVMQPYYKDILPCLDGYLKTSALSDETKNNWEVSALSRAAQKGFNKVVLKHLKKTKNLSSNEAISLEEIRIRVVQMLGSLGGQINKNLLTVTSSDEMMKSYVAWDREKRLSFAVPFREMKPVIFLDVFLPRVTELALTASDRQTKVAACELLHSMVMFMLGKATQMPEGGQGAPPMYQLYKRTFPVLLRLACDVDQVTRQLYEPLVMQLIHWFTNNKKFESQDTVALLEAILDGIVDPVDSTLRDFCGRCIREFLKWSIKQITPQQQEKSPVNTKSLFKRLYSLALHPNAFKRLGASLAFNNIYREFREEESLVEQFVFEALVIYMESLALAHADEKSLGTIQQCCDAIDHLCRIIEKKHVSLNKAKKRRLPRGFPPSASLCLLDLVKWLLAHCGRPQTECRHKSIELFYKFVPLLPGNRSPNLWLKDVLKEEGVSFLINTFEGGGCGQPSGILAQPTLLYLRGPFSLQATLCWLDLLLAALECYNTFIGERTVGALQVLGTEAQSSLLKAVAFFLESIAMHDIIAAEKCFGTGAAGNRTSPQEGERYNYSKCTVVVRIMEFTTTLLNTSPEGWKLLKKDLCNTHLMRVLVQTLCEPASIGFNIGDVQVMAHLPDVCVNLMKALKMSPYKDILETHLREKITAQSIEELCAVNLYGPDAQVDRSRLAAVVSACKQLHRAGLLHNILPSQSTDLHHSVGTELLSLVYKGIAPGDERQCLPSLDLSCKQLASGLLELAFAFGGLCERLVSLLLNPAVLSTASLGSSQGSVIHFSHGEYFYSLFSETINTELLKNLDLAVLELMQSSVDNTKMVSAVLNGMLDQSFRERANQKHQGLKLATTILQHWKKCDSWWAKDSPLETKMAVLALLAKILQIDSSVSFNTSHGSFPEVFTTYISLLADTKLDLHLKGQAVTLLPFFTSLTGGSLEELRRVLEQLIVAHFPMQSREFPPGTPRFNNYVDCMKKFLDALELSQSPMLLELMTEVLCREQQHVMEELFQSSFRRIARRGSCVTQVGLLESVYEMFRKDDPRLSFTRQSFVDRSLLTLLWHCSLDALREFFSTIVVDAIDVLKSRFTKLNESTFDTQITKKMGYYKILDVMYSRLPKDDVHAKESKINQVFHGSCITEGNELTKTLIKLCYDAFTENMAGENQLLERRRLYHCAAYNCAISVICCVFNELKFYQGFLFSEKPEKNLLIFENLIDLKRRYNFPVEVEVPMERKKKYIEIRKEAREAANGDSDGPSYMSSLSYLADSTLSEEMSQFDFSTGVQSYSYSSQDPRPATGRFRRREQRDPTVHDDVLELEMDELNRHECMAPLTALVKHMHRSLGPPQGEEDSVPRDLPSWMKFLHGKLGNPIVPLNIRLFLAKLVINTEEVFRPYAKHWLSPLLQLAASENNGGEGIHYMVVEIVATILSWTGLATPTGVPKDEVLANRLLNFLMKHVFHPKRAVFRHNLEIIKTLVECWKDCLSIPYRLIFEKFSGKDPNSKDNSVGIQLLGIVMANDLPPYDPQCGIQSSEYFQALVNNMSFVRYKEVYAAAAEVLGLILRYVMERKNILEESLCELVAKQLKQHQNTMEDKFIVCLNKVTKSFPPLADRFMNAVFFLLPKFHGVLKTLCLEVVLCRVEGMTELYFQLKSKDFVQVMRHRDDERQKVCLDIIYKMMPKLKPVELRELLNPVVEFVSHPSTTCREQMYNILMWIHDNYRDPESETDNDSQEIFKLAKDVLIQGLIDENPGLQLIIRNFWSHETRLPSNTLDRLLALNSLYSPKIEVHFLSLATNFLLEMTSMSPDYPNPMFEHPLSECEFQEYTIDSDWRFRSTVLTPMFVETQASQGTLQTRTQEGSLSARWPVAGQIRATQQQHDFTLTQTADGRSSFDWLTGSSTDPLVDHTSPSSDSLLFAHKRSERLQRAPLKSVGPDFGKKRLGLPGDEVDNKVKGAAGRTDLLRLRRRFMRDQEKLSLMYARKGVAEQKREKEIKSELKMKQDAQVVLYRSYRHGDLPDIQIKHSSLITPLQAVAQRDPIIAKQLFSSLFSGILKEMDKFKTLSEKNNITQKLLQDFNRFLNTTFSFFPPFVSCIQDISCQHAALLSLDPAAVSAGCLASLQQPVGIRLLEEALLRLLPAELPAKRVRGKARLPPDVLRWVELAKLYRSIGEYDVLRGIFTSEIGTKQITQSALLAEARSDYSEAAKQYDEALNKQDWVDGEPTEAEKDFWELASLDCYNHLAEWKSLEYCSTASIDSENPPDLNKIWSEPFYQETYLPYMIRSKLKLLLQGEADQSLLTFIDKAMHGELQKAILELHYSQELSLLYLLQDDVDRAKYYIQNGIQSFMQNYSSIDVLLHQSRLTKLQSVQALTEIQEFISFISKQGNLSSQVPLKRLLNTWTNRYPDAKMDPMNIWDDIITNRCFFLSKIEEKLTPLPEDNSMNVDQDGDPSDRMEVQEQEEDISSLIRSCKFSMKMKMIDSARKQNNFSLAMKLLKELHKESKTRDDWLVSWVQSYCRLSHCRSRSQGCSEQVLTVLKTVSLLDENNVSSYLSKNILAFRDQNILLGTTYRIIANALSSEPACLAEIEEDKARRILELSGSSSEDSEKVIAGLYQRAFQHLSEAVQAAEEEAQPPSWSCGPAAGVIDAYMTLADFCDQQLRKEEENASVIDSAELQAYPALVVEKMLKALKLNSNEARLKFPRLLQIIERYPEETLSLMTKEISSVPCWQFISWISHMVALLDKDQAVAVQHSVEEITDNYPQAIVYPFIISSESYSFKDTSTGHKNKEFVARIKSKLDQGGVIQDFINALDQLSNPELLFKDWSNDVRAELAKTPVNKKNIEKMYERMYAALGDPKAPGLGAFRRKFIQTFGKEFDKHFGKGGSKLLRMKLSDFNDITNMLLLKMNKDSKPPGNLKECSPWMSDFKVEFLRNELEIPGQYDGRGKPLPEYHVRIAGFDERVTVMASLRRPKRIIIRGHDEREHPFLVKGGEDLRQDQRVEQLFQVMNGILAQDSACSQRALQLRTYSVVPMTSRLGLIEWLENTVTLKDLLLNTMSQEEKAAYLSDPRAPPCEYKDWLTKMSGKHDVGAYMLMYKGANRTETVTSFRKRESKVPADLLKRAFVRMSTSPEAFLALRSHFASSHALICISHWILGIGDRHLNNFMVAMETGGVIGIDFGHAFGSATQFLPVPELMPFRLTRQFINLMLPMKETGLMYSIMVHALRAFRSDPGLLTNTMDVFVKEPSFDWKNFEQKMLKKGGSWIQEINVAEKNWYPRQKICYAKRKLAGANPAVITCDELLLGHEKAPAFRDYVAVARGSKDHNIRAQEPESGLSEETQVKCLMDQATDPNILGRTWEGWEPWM

Substance “adenovirus E4 34k protein (product of early region 4 ORF6), expressed from plasmid OE6.5 as a fusion with a c-myc epitope” has a V(D)J recombination frequency (recombinant formation of substrate plasmid pJH200 in transfected 293 cells) of 5 fold.
